# Experiments:
# [1] = target: IL-2 receptor signaling complex on primary human NK cells and CD8+ T cells (IL-2Rβγ) (human) (UniProt P14784); assay: cell-based or functional assay; design: unit not given beside the values
# [2] = target: IL-2 receptor signaling complex on primary human Treg cells (IL-2Rα expressing; IL-2Rαβγ) (human) (UniProt P01589); assay: cell-based or functional assay; design: unit not given beside the values
# Chain of IL-2 receptor signaling complex on primary human Treg cells (IL-2Rα expressing; IL-2Rαβγ) (human) (P01589 22-272, chain 1 of 3): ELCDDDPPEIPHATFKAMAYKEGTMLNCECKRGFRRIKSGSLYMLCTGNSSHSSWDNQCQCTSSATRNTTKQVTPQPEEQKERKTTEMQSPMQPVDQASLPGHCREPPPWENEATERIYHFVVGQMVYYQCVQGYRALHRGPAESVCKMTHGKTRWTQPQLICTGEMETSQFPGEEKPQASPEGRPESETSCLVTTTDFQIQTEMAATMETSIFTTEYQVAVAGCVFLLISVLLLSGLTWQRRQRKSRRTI
# Chain of IL-2 receptor signaling complex on primary human Treg cells (IL-2Rα expressing; IL-2Rαβγ) (human) (P14784 27-551, chain 2 of 3, further chain): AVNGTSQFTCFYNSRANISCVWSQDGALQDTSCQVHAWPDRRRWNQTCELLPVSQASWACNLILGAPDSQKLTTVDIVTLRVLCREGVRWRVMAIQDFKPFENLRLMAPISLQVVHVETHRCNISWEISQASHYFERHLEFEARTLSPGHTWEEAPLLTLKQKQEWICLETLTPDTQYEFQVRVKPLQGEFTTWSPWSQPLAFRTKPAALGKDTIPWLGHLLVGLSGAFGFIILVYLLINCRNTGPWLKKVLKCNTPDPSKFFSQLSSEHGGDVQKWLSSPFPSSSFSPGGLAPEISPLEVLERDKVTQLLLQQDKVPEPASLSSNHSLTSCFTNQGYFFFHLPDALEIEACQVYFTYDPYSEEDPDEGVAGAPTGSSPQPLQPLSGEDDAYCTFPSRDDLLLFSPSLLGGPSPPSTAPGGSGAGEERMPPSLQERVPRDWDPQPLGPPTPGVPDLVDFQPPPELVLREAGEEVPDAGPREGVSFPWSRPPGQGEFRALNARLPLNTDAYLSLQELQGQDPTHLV
# Chain of IL-2 receptor signaling complex on primary human Treg cells (IL-2Rα expressing; IL-2Rαβγ) (human) (P31785 23-369, chain 3 of 3, further chain): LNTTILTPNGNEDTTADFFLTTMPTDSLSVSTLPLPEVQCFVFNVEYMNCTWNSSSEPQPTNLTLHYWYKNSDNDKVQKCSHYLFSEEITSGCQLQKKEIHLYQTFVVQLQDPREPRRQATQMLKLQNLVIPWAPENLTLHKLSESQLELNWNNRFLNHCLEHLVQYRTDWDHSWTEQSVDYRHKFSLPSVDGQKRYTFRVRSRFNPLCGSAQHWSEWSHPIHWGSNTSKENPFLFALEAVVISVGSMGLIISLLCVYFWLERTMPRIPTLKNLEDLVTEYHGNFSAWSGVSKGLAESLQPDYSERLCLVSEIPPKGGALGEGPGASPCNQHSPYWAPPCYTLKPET
# Chain of IL-2 receptor signaling complex on primary human NK cells and CD8+ T cells (IL-2Rβγ) (human) (P14784 27-551, chain 1 of 2): as the sequence (P14784 27-551, chain 2 of 3, further chain) above
# Chain of IL-2 receptor signaling complex on primary human NK cells and CD8+ T cells (IL-2Rβγ) (human) (P31785 23-369, chain 2 of 2, further chain): as the sequence (P31785 23-369, chain 3 of 3, further chain) above
# Chain of S127_30kD (P60568 other isoform, or with tags, fused parts or gaps limits assumed): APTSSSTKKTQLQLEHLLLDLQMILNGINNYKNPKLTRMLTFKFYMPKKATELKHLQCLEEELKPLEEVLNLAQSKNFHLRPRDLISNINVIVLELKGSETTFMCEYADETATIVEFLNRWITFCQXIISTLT
"EC50 for pSTAT5 signaling, CD8+ T cells [1]","EC50 for pSTAT5 signaling, NK cells [1]","EC50 for pSTAT5 signaling, Treg cells [2]",Substance
1.5e+07,2.31e+06,11100,N88R (from UniProt P60568 21-153) (ligand)
1.25e+07,2.78e+06,176000,N88R/D109_30kD (from UniProt P60568 21-153) (ligand)
–,–,150,S127_30kD (from UniProt P60568 21-153) (ligand)
102000,20500,142,V91K (from UniProt P60568 21-153) (ligand)

# From US20220016249A1
